The source of these data is PMC10732415, “Bacteriophage-encoded 24B_1 molecule resembles herpesviral microRNAs and plays a crucial role in the development of both the virus and its host”.

In this series the target is Hfq (Escherichia coli, UniProt P0A6X3 1-102). Kind of series: EMSA; 1 mM Mg2+; Hfq up to 100 nM. Particulars: protein: recombinant; chain copies: 6; label: 32P; predicted 4-bp helix.
Sequence of Hfq (P0A6X3 whole entry): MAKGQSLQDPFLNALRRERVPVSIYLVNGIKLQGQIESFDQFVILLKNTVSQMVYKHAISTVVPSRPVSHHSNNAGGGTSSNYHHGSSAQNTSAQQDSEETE

With UAACGUUAAGUUGACUCGGG (ssRNA) [mature 24B_1 RNA, 20 nt], the binding result is reported as “no binding”.
